Consider 14 molecules from paper PMC10626543, “Native lamin A/C proteomes and novel partners from heart and skeletal muscle in a mouse chronic inflammation model of human frailty” (Frontiers in Cell and Developmental Biology, 2023).

To fix the notation:
T1: recombinant lamin A tail (residues 385–646 of human mature lamin A) (human, UniProt P02545 385-646)
T1 construct: lamin A, human, residues 385-646 of mature lamin A: flexible linker 385-429, Ig-fold 430-544, disordered 545-646; also called lamin A tails; LamA; not shown: His tag, C-terminal, kept
T1 sequence (looked up): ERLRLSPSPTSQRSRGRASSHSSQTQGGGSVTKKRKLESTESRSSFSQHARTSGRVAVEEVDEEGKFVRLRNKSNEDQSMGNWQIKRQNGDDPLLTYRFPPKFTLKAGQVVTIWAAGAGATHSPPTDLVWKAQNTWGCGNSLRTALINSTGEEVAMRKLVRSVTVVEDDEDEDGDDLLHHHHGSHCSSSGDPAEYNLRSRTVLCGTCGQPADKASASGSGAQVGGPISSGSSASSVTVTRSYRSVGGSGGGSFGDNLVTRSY

B1: Perm1 peptide i4 (aa 593–612) (peptide)
peptide: EENEEAEAAAAGQDPAGVQW
notes: Perm1, human, residues 593-612; source: synthetic peptide, on cellulose array
B2: Perm1 peptide h16 (aa 529–548) (peptide)
peptide: QTATGAHGGPGAWEAVAVGP
notes: Perm1, human, residues 529-548; source: synthetic peptide, on cellulose array
B3: Tmem38A peptide k16 (aa 197–216) (peptide)
peptide: FTLQQTRWLPVSKASLIFIF
notes: Tmem38a, human, residues 197-216; source: synthetic peptide, on cellulose array
B4: Tmem38A peptide k10 (aa 155–174) (peptide)
peptide: KGSGVALMSNFEQLLRGVWK
notes: Tmem38a, human, residues 155-174; source: synthetic peptide, on cellulose array
B5: AldoA peptide r20 (aa 309–328) (peptide)
peptide: SALKAWGGKKENLKAAQEEY
notes: AldoA, human, residues 309-328; source: synthetic peptide, on cellulose array
B6: Perm1 peptide h5 (aa 441–460) (peptide)
peptide: SSGLVSTPVPRADAAGLAWP
notes: Perm1, human, residues 441-460; source: synthetic peptide, on cellulose array
B7: AldoA peptide r18 (aa 295–314) (peptide)
peptide: PWALTFSYGRALQASALKAW
notes: AldoA, human, residues 295-314; source: synthetic peptide, on cellulose array
B8: Perm1 peptide j2 (aa 737–756) (peptide)
peptide: FVAFATWAVRTSDPHTPDAW
notes: Perm1, human, residues 737-756; source: synthetic peptide, on cellulose array
B9: AldoA peptide r19 (aa 302–321) (peptide)
peptide: YGRALQASALKAWGGKKENL
notes: AldoA, human, residues 302-321; source: synthetic peptide, on cellulose array
B10: Lmcd1 peptide v17 (aa 309–328) (peptide)
peptide: SGCDEIIFAEDYQRVEDLAW
notes: Lmcd1, human, residues 309-328 (second LIM domain); source: synthetic peptide, on cellulose array
B11: prelamin A peptide W19 (aa 485–504) (peptide)
peptide: PKFTLKAGQVVTIWAAGAGA
notes: prelamin A, human, residues 485-504 (Ig-fold); source: synthetic peptide, on cellulose array
B12: Tmem38A peptide j13 (aa 36–55) (peptide)
peptide: YLKYEPGAVELSRRHPIASW
notes: Tmem38a, human, residues 36-55; source: synthetic peptide, on cellulose array
B13: prelamin A peptide W14 (aa 450–469) (peptide)
peptide: KFVRLRNKSNEDQSMGNWQI
notes: prelamin A, human, residues 450-469 (Ig-fold); source: synthetic peptide, on cellulose array
B14: prelamin A peptide X1 (aa 499–518) (peptide)
peptide: AAGAGATHSPPTDLVWKAQN
notes: prelamin A, human, residues 499-518 (Ig-fold); source: synthetic peptide, on cellulose array

The assay has as its target T1, recombinant lamin A tail (residues …). In words: peptide or protein array; synthetic 20-mer peptides (7-residue offset) on cellulose; probed 3 h at room temperature with 190 nM His-tagged lamin A tail in casein blocking solution (TBS-T, sucrose, pH 7.0); bound lamin detected with anti-lamin A/C clone 14 and AP-conjugated secondary antibody; two experiments, each with an antibodies-only control. The conditions noted are these: both partners purified.
In the case of B1, the binding result is recorded as “binds”.
Take B2: the binding result is “binds”.
The entry for B3 is “binds”.
The entry for B4 is “binds”; for B5 it is “binds”; for B6 it is “binds”.
To B7 belongs “binds”.
Consider B8, for which the binding result is “binds”.
The entry for B9 is “binds”; for B10 it is “binds”.
Take B11: the binding result is “binds”.
Consider B12, for which the binding result is given as “binds”.
In the case of B13, the binding result was “binds”.
The entry for B14 is “binds”.
